Patent US20120207760A1

B1: TCN-563 (5237_B21) (antibody, V domains shown)
VH: QVQLAQSGAEVKRPGSSVKVSCTASGGIFRKNAISWVRQAPGQGLEWMGGIIAVFNTANYAQKFQGRVKITADESGNTAYMELSSLRSDDTAVYYCASHPKYFYGSGSYPDFWGQGTLVTVSS
VL: QSALTQPRSVSGSPGQSVTISCTGSSSDVGASNSVSWYQQHPGKAPKLVIYDVTERPSGVPHRFSGSKSGNTASLTVSGLQPEDEADYFCCAYGGKYLVVFGGGTKVTVL
B2: TCN-526 (5084_C17) (antibody, V domains shown)
VH: EVLMVESGGGLVQPGGSVRLSCVASGFSFSSHWMTWVRQAPGKGLEWVANIEDDGGDKYYVDSVKGRFIISRDNAKNSVYLQMNSLRAEDTAVYFCARGSGSSDRSDYDPHYYYYLDVWGKGATVTVSS
VL: DIQLTQSPSSLSASVGDRVTITCRASQSISRYLNWYQQKPGKAPKLLLFAASTLLDGVPSRFSGSGSGTDFTLTISSLQPEDFATYYCQRNHSPSWTFGQGTRVEIK
B3: TCN-534 (5249_B02) (antibody, V domains shown)
VH: QVQLVQSGAEVKKPGSSVKVSCRESGGTFNGYTITWVRQAPGQGLEWMGGIIPMMGTVNYAQKLQGRVTITTDYFTKTAYMDLNNLRSEDTAMYYCVKIRYTGQQLLWGQGTLVTVSS
VL: DIQMTQSPSTLSASIGDRVTITCRASQSIASWLAWYQQKPGKAPKLLIYEAVNLESGVPSRFSGSGSGTDFTLTISSLQPDDFATYFCQHYGTISQTFGGGTKVEIK
B4: TCN-527 (5086_C06) (antibody, V domains shown)
VH: QVQLQESGPGLVKPSETLSLNCAVSGGSISNYYWSWIRQPPGKGLEWIGYISYNGRPKYNPSLTSRVTISVDTSKDQFSLELRSVTAADTALYYCARETRFGELLSPYDAFEIWGQGTMVTVSS
VL: DIQMTQSPSSLSASVGDRVTMTCRASQNIRSYLNWYQQRPGTAPKLLIYAASTLHSGVPSRFSGGGSGTDFTLTINNLQPEDFASYYCQQSYDNPQTFGQGTKVEIK
B5: TCN-548 (5092_P01) (antibody, V domains shown)
VH: QVQLQESGPGLVKPSETLSLTCTVSSGPMSDYYWSWIRQPPGKGLEWIGHVSVSHGGRTKSNPSVMSRVTISVETSKNQFSLKLTSVTAADTAVYYCARLNYYDRSGYHSPDGPSNNWFDPWGQGTLVTVSS
VL: not shown
B6: TCN-528 (5087_P17) (antibody, V domains shown)
VH: QVQLVQSGSEVKKPGASVKVSCKASGYTFTNYDINWIRQAPGQGLEWMGWINPNSGTTGSAQRFQGRVTITVDTSITTVYMELSSLRSDDTAIYYCARGRELLRLQHFLTDSQSERRDCFDPWGQGTLVTVSS
VL: DIQMTQSPSSLSASVGDRVTITCRANQDIGIYLNWYQQNPGKVPKLLLHGASSLQGGVPSRFSASGSGTDFTLTIHSLQPEDLATYYCQQSRRLPYTFGQGTRVELK

Key:
Conditions in all cases: remark: other sources report otherwise
[1] = molecular target: recombinant homotrimeric HA, A/Anhui/1/05 H5N1 (Influenza A virus A/Anhui/1/05 (H5N1)); test: trimeric HA microarray, transfection set 2
[2] = molecular target: T1, recombinant homotrimeric HA, A/California/4/09 H1N1 (Influenza A virus A/California/4/09 (H1N1)); test: trimeric HA microarray, transfection set 2
[3] = molecular target: recombinant homotrimeric HA, A/Egypt/3300-NAMRU3/08 H5N1 (Influenza A virus A/Egypt/3300-NAMRU3/08 (H5N1)); test: trimeric HA microarray, transfection set 2
[4] = molecular target: recombinant homotrimeric HA, A/Hong Kong/1073/99 H9N2 (Influenza A virus A/Hong Kong/1073/99 (H9N2)); test: trimeric HA microarray, transfection set 2
[5] = molecular target: recombinant homotrimeric HA, A/Hong Kong/2108/03 H9N2 (Influenza A virus A/Hong Kong/2108/03 (H9N2)); test: trimeric HA microarray, transfection set 2
[6] = molecular target: T2, recombinant homotrimeric HA, A/Indonesia/5/05 H5N1 (Influenza A virus A/Indonesia/5/05 (H5N1)); test: trimeric HA microarray, transfection set 2
[7] = molecular target: T3, recombinant homotrimeric HA, A/Japan/305/57 H2N2 (Influenza A virus A/Japan/305/57 (H2N2)); test: trimeric HA microarray, transfection set 2
[8] = molecular target: recombinant homotrimeric HA, A/Netherlands/219/03 H7N7 (Influenza A virus A/Netherlands/219/03 (H7N7)); test: trimeric HA microarray, transfection set 2
[9] = molecular target: T4, recombinant homotrimeric HA, A/Solomon Islands/3/06 H1N1 (Influenza A virus A/Solomon Islands/3/06 (H1N1)); test: trimeric HA microarray, transfection set 2
[10] = molecular target: T5, recombinant homotrimeric HA, A/South Carolina/1/18 H1N1 (Influenza A virus A/South Carolina/1/18 (H1N1)); test: trimeric HA microarray, transfection set 2
[11] = molecular target: T6, recombinant homotrimeric HA, A/Vietnam/1203/04 H5N1 (Influenza A virus A/Vietnam/1203/04 (H5N1)); test: trimeric HA microarray, transfection set 2
[12] = molecular target: T7, recombinant homotrimeric HA, A/Wisconsin/67/05 H3N2 (Influenza A virus A/Wisconsin/67/05 (H3N2)); test: trimeric HA microarray, transfection set 2
[13] = molecular target: recombinant homotrimeric HA, A/chicken/Vietnam/NCVD-016/08 H5N1 (Influenza A virus A/chicken/Vietnam/NCVD-016/08 (H5N1)); test: trimeric HA microarray, transfection set 2
[14] = molecular target: recombinant homotrimeric HA, A/common magpie/Hong Kong/5052/07 H5N1 (Influenza A virus A/common magpie/Hong Kong/5052/07 (H5N1)); test: trimeric HA microarray, transfection set 2
[15] = molecular target: recombinant homotrimeric HA, A/duck/Yangzhou/02/05 H8N4 (Influenza A virus A/duck/Yangzhou/02/2005 (H8N4)); test: trimeric HA microarray, transfection set 2
[16] = molecular target: recombinant homotrimeric HA, A/northern shoveler/California/HKWF115/07 (Influenza A virus A/northern shoveler/California/HKWF115/2007 (H6N1)); test: trimeric HA microarray, transfection set 2
[17] = molecular target: recombinant homotrimeric HA, A/swine/Ontario/01911-2/99 H4N6 (Influenza A virus A/swine/Ontario/01911-2/99 (H4N6)); test: trimeric HA microarray, transfection set 2
[18] = molecular target: T1, recombinant homotrimeric HA, …; test: trimeric HA microarray, transfection set 4
[19] = molecular target: T2, recombinant homotrimeric HA, …; test: trimeric HA microarray, transfection set 4
[20] = molecular target: T3, recombinant homotrimeric HA, …; test: trimeric HA microarray, transfection set 4
[21] = molecular target: T4, recombinant homotrimeric HA, A/Solomon …; test: trimeric HA microarray, transfection set 4
[22] = molecular target: T5, recombinant homotrimeric HA, A/South …; test: trimeric HA microarray, transfection set 4
[23] = molecular target: T6, recombinant homotrimeric HA, …; test: trimeric HA microarray, transfection set 4
[24] = molecular target: T7, recombinant homotrimeric HA, …; test: trimeric HA microarray, transfection set 4
[25] = molecular target: T1, recombinant homotrimeric HA, …; test: trimeric HA microarray, transfection set 5
[26] = molecular target: T3, recombinant homotrimeric HA, …; test: trimeric HA microarray, transfection set 5
[27] = molecular target: T4, recombinant homotrimeric HA, A/Solomon …; test: trimeric HA microarray, transfection set 5
[28] = molecular target: T5, recombinant homotrimeric HA, A/South …; test: trimeric HA microarray, transfection set 5
[29] = molecular target: recombinant soluble homotrimeric HA of A/chicken/Vietnam/NCVD-016/08 (H5N1) (Influenza A virus A/chicken/Vietnam/NCVD-016/08 (H5N1)); test: microarray, BCC supernatant IgG, trimeric HA
[30] = molecular target: recombinant soluble homotrimeric HA of A/northern shoveler/California/HKWF115/07 (Influenza A virus A/northern shoveler/California/HKWF115/2007); test: microarray, BCC supernatant IgG, trimeric HA

Binder | Trimeric HA Binding RLU [1] [RLU] | Trimeric HA Binding RLU [2] [RLU] | Trimeric HA Binding RLU [3] [RLU] | Trimeric HA Binding RLU [4] [RLU] | Trimeric HA Binding RLU [5] [RLU] | Trimeric HA Binding RLU [6] [RLU] | Trimeric HA Binding RLU [7] [RLU] | Trimeric HA Binding RLU [8] [RLU] | Trimeric HA Binding RLU [9] [RLU] | Trimeric HA Binding RLU [10] [RLU] | Trimeric HA Binding RLU [11] [RLU] | Trimeric HA Binding RLU [12] [RLU] | Trimeric HA Binding RLU [13] [RLU] | Trimeric HA Binding RLU [14] [RLU] | Trimeric HA Binding RLU [15] [RLU] | Trimeric HA Binding RLU [16] [RLU] | Trimeric HA Binding RLU [17] [RLU] | further results
B1 | 1570 | 21200 | 23900 | 49200 | 364 | 47300 | 11200 | 5420 | 26500 | 17800 | 31500 | 23700 | 36300 | 52800 | 6280 | 21900 | – | –
B2 | – | – | – | 490 | – | – | 3590 | 5660 | 1470 | 2310 | – | 27800 | – | – | – | – | 3490 | –
B3 | – | – | – | – | – | – | – | – | – | – | – | – | – | – | – | – | – | Trimeric HA Binding RLU [18]: 27000 RLU; Trimeric HA Binding RLU [19]: 948 RLU; Trimeric HA Binding RLU [20]: 14700 RLU; Trimeric HA Binding RLU [21]: 60 RLU; Trimeric HA Binding RLU [22]: 11800 RLU; Trimeric HA Binding RLU [23]: 23700 RLU; Trimeric HA Binding RLU [24]: 897 RLU
B4 | 15200 | 21500 | 23600 | 557 | 25500 | 23400 | 20800 | 49100 | 19700 | 48100 | 20600 | 35800 | 20100 | 43800 | 17900 | 19300 | 30100 | –
B5 | – | – | – | – | – | – | – | – | – | – | – | – | – | – | – | – | – | Trimeric HA Binding RLU [25]: 818 RLU; Trimeric HA Binding RLU [26]: 1020 RLU; Trimeric HA Binding RLU [27]: 750 RLU; Trimeric HA Binding RLU [28]: 1150 RLU; Trimeric HA Binding: RLU [29]: 254 RLU; Trimeric HA Binding: RLU [30]: 314 RLU
B6 | 21200 | 44600 | 36800 | 322 | 33600 | 39700 | 23100 | 47200 | 26900 | 25200 | 23300 | 46000 | 22600 | 45300 | 19800 | 28400 | 49200 | –
